Measured values from patent US10538591B2, “Anti-fibulin-3 antibodies and uses thereof” (THE BRIGHAM AND WOMEN'S HOSPITAL, INC., priority 2014, dated 2020).

What was measured:
U251MG glioma cells = test: Temozolomide combination viability assay in U251MG cells; format: cell-based, human; conditions: increasing concentrations, 72 h
Procedure: The antibody increased the cytotoxicity of TMZ by 30% in average.
Antibodies against fibulin-3 can potentiate the effect of a chemotherapeutic drug. Glioma cells (U251MG cell line) were cultured in presence of increasing doses of temozolomide, which is the standard-of-care drug for treatment of malignant glioma. The drug was combined with antibody vehicle (PBS) or with a fixed dose of anti-Fib3/911 antibody. Viability of the cells was analyzed after 72 h, which is a time period at which temozolomide has only a modest effect on glioma cells.

purified human fibulin-3 = target: T1, purified human fibulin-3 (Homo sapiens, UniProt Q12805); test: Western blot and dot-blot detection of fibulin-3; format: binding; conditions: for detection of fibulin-3 by Western blotting: SDS-PAGE, reducing and/or non-reducing conditions
T1 construct: purchased ORIGENE
T1 sequence (Q12805 18-493): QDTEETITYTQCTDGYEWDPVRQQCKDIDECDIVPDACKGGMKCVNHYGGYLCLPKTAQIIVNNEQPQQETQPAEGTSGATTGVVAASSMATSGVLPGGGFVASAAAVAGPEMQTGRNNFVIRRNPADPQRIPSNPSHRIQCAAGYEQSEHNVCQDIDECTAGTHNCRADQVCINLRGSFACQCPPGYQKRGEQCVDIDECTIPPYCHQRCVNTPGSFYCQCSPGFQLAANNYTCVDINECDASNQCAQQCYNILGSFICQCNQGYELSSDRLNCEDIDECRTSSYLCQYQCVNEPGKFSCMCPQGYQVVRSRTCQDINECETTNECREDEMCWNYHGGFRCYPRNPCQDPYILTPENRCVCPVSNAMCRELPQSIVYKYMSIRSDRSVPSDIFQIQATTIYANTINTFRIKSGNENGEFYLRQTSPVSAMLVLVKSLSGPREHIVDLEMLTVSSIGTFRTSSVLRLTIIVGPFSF
Procedure: CNSI glioma cells were transfected with fibulin-3 cDNA (fib3-OE cells) or a control plasmid (control cells) and cultured for 24 h in serum-free conditions. Conditioned medium was collected and probed by Western blotting with anti-Fib3/911 (911), anti-Fib3/912 (912), or their respective preimmune sera (antibodies and sera were used at 1/5000 dilution).
Two rabbit polyclonal antibodies were commissioned against the 23-amino acid peptide sequence of fibulin-3 involved in Notch activation. The peptide was minimally modified to facilitate the formation of a disulfide bridge necessary to form a conformational, tri-dimensional epitope (FIG. 4). Antibodies against fibulin-3 (“anti-Fib3/911” and “anti-Fib3/912”) were purified by affinity chromatography, aliquoted, and prepared in phosphate-buffered saline (PBS) solution for all subsequent tests.
Purified human fibulin-3 (200 ng/lane, ORIGENE) was subjected to SDS-PAGE in reducing and non-reducing conditions and probed with affinity-purified mAb428.3C11 (0.4 to 20 μg/ml, diluted in PBS from a 2 mg/ml stock).
Concentrated, serum-free culture medium from HEK293 cells (1 mg/ml total protein) was probed with anti-human IgG secondary antibody (HRP conjugate) to detect the chains of antibody in reducing and non-reducing conditions. C) Concentrated medium from HEK293 cells (1 mg/ml total protein) was directly used to probe purified human fibulin-3 (resolved by SDS-PAGE in non-reducing conditions).

Procedure for U251 glioblastoma cells: In FIG. 27C, U251 glioblastoma cells (5,000 cells/well) were incubated in conditioned medium from control-HEK293 or scFv-expressing HEK293 (1.5 mg/ml total protein). After 48 h cell viability was measured using the CellTiter-Glo kit to measure ATP production (PROMEGA cat #G7572).

## Cn1nnc2c(C(N)=O)ncn2c1=O [TMZ, temozolomide]
U251MG glioma cells
  cytotoxic effect of TMZ alone: modest, dose-dependent cytoxic effect

B1: chimeric mouse/human mAb428.2: recombinant chimeric antibody with VL and VH of mAb428.2; light chain SEQ ID NO: 23, heavy chain SEQ ID NO: 24 (antibody)
heavy: MYRMQLLSCIALSLALVTNSEVQLVEQIQLVQSGPELKKPGETVKISCKASGYSFTTYGMSWVKQAPGKGLKWMGWINTHSGVPTYADDFKGRFAFFLETSASTAYLQINNLKNEDTATYFCARWVDYWGQGTTLTVSSGTLVTVSSASTKGPSVFPLAPSSKSTSGGTAALGCLVKDYFPEPVTVSWNSGALTSGVHTFPAVLQSSGLYSLSSVVTVPSSSLGTQTYICNVNHKPSNTKVDKKVEPKSCDKTHTCPPCPAPELLGGPSVFIFPPKPKDVLTITLTPKVTCVVVDISKDDPEVQFSWFVDDVEVHTAQTQPREEQFNSTFRSVSELPIMHQDWLNGKEFKCRVNSAAFPAPIEKTISKTKGRPKAPQVYTIPPPKEQMAKDKVSLTCMITDFFPEDITVEWQWNGQPAENYKNTQPIMDTDGSYFVYSKLNVQKSNWEAGNTFTCSVLHEGLHNHHTEKSLSHSPGK
light: MQLLSCIALSLALVTNSDIQMTQSPSSLSASVGDRVTITCRASQSVSSADIKMTQSPSSMYASLGERVTITCKASQDIKSYLSWHQQKPWKSPKTLIYYATSLADGVPSRFSGSGSGQDYSLTISSLESDDTATYYCLQHGKSPYTFGGGTKLEIKGTKVEIKRTVAAPSVFIFPPSDSQLKSGTASVVCLLNNFYPREAKVQWKVDNALQSGNSQESVTEQDSKDSTYSLSSTLTLSKADYEKHKVYACEVTHQGLSSPVTKSFNRGEC
Purified human fibulin-3
  detection of fibulin-3 by Western blotting: detects the same pattern of bands as purified mouse mAb428.2

B2: scFv428.2: single-chain variable fragment derived from mAb428.2, VL-(G4S)3-VH with Myc and 6xHis tags; SEQ ID NOS: 25, 26 (protein)
scFv: DDIKMTQSPSSMYASLGERVTITCKASQDIKSYLSWHQQKPWKSPKTLIYYATSLADGVPSRFSGSGSGQDYSLTISSLESDDTATYYCLQHGKSPYTFGGGTKLEIKGGGGSGGGGSGGGGSQIQLVQSGPELKKPGETVKISCKASGYSFTTYGMSWVKQAPGKGLKWMGWINTYSGVPTYADDFKGRFAFFLETSASTAYLQINNLKNEDTATYFCARWVDYWGQGTTLTVSSEQKLISEEDLNMHTGHHHHHH
Purified human fibulin-3
  detection of fibulin-3 by Western blotting: can detect denatured fibulin in reducing and non-reducing conditions
Purified human fibulin-3; non-reduced fibulin-3 on nitrocellulose, scFv428.2 medium 1 mg/ml, mAb428.2 1 μg/ml
  detection of native fibulin-3 by dot-blotting: able to detect native fibulin-3 by dot-blotting
U251 glioblastoma cells
  cytotoxicity of culture media with scFv: induce cytotoxicity in glioblastoma cells
